# Laboratory results from the supplement of paper PMC7125110.
# ± gives the standard error. Variants at the floor of the assay were thinned out.
# B1: glmS ribozyme (parent)
# chain: AUAAAAGCGCCAGAACUACAGAAAUGUAGUUGACGAGGAGGAGGUUUAUCGAAUUUUCGGCGGAUGCCUCCAAA
# Variants of: B1
# Test: self-cleavage kobs at 10000 uM GlcN6P; higher = faster cleavage; RNA array
# Details: with glucosamine-6-phosphate
# Summary of the method: (§1)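 Glucosamine-6-phosphate (40 μM to 10 mM) in HEPES/KCl/Mg(OAc)2 buffer was flowed over sequenced MiSeq chips, and tiles were imaged over ~14 h. Barcoded ribozyme variants there had been transcribed in situ by E. coli RNA polymerase and were tracked through a hybridised Cy3 probe at 37 °C. One- or two-exponential decay fits to per-tile medians, normalised to baseline and to non-cleaving reference variants, gave kobs. kcat and KM came from weighted Michaelis–Menten fits across concentrations.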
row,Variant,self-cleavage kobs at 10000 uM GlcN6P
1,A12C U30A U47A G51U,< 1e-05 s⁻¹
2,U30G A33G C71G,< 1e-05 s⁻¹
3,C10U G13C G51A A53U A64G G66A,< 1e-05 s⁻¹
4,G29A A64G C67G,5.14e-05 ± 2e-05 s⁻¹
5,A15U A53U G63C,< 1e-05 s⁻¹
6,G7C A14U U47A,< 1e-05 s⁻¹
7,A36G G40U C68A,< 1e-05 s⁻¹
8,U31A A36U U47G C70G,5.95e-05 ± 1.5e-05 s⁻¹
9,G29C U49A C50A,< 1e-05 s⁻¹
10,U30A U65A C71U,0.000453 ± 8.5e-05 s⁻¹
11,G7U C11U C16A U45A G51A G60C,< 1e-05 s⁻¹
12,A39U A48G G60A,< 1e-05 s⁻¹
13,U30G G37U A52U G59A,< 1e-05 s⁻¹
14,A15C A36C C67A,< 1e-05 s⁻¹
15,A6U A53C,5.75e-05 ± 9.2e-06 s⁻¹
16,C16G U47A C61G,< 1e-05 s⁻¹
17,U55G C61A,< 1e-05 s⁻¹
18,U46G U55G G66U,0.000444 ± 0.00018 s⁻¹
19,G41C U56C,3.26e-05 ± 8.9e-06 s⁻¹
20,A12U G44A A52U,4.81e-05 ± 2e-05 s⁻¹
21,C50G G62C C70A,0.000153 ± 4.6e-05 s⁻¹
22,G29C C61G C67G,< 1e-05 s⁻¹
23,G38A U57C A64U,< 1e-05 s⁻¹
24,A6U A12U A64G,0.000171 ± 4.1e-05 s⁻¹
25,C8G A14C C68G,< 1e-05 s⁻¹
26,U30G A36G G40U C68A,< 1e-05 s⁻¹

row,Variant,self-cleavage kobs at 10000 uM GlcN6P
1,G7C C10U G60U,< 1e-05 s⁻¹
2,A12U U30A A39U U55C,0.0143 ± 0.0028 s⁻¹
3,A12G G29A G63A,< 1e-05 s⁻¹
4,C50U A53U G59C U65A,< 1e-05 s⁻¹
5,A14G U30A G41U C68A,< 1e-05 s⁻¹
6,G37C U45A U54C G63C,< 1e-05 s⁻¹
7,A15G G63U A64G,< 1e-05 s⁻¹
8,A12C G13C G32A A39U,5.7e-05 ± 1e-05 s⁻¹
9,C10U A33G G35C U45G C68U,< 1e-05 s⁻¹
10,A6C U31C U45A U57G,< 1e-05 s⁻¹
11,A12C C16G U49A C68A,< 1e-05 s⁻¹
12,A36U G43C U54C U55C G63C C71A,< 1e-05 s⁻¹
13,C10G C11G U55C G60A,< 1e-05 s⁻¹
14,U31G G44C,4.96e-05 ± 1.3e-05 s⁻¹
15,G13C G40A,2.64e-05 ± 9.8e-06 s⁻¹
16,C11U U69C,0.000482 ± 9.2e-05 s⁻¹
17,G29A C67U C70U,6.18e-05 ± 1.1e-05 s⁻¹
18,G32U G43U A53G G63U A64G G66U,< 1e-05 s⁻¹
19,A42U A64C C67U,< 1e-05 s⁻¹
20,A15U G44U,3.08e-05 ± 1.4e-05 s⁻¹
21,A14C A48C G59U,< 1e-05 s⁻¹
22,A6U A33G C34U G44U U49C U57G,< 1e-05 s⁻¹
23,G29A C34G C67U,< 1e-05 s⁻¹
24,C11U G38U U45A A48U C71G,< 1e-05 s⁻¹
25,C8U U45A A48G C70G,< 1e-05 s⁻¹
26,U31G U56C C58U,6.36e-05 ± 1.2e-05 s⁻¹

row,Variant,self-cleavage kobs at 10000 uM GlcN6P
1,C11U A15G C16U C50G U54G U56A U69C,< 1e-05 s⁻¹
2,A12U G29A C70A,9.81e-05 ± 2.5e-05 s⁻¹
3,A14U U30G U55G C70A,3.35e-05 ± 1.5e-05 s⁻¹
4,A64U G66C,4.03e-05 ± 1.2e-05 s⁻¹
5,C8G G32U G66U,< 1e-05 s⁻¹
6,U30G U55G C70G,4.53e-05 ± 1.9e-05 s⁻¹
7,G13U G38C C58U C61U,< 1e-05 s⁻¹
8,A14G U54A C70G,0.000124 ± 2.6e-05 s⁻¹
9,G29C U46G A64U,< 1e-05 s⁻¹
10,G7C G9U A14G,< 1e-05 s⁻¹
11,U55A A64U C71A,4.3e-05 ± 1.9e-05 s⁻¹
12,C10U G37C G43C U47C,< 1e-05 s⁻¹
13,A12U C50G G62A C71U,8.18e-05 ± 2.2e-05 s⁻¹
14,C8U A14U A36U,< 1e-05 s⁻¹
15,A48G C58A,4.59e-05 ± 1.1e-05 s⁻¹
16,U45G C58A G66U,8.19e-05 ± 1.6e-05 s⁻¹
17,A39U A42G U46C,0.00379 ± 0.00069 s⁻¹
18,C8U A42U C50U,< 1e-05 s⁻¹
19,A14C A39U C67G,0.000928 ± 0.00017 s⁻¹
20,A14C G38C G60U,< 1e-05 s⁻¹
21,C16U G38A A52G C71G,< 1e-05 s⁻¹
22,A36U G40A G43C A52G,0.00106 ± 0.00036 s⁻¹
23,G13A U46A,4.05e-05 ± 1.3e-05 s⁻¹
24,U31G U47C U54A,0.00049 ± 8.9e-05 s⁻¹
25,G40C G41A C50U,< 1e-05 s⁻¹

# Variants of: B1
# Test: self-cleavage kobs at 2500 uM GlcN6P; higher = faster cleavage; RNA array
# Details: with glucosamine-6-phosphate
# Summary of the method: as §1
row,Variant,self-cleavage kobs at 2500 uM GlcN6P
1,G51U U55C G62A G66C C67U,< 1e-05 s⁻¹
2,C11G U55A C61A U69A C71G,0.000284 ± 8.5e-05 s⁻¹
3,G38U U55A G62A U69G,0.0012 ± 0.00058 s⁻¹
4,C8U A12U A48U G62C U65A,< 1e-05 s⁻¹
5,G9U G63C G66U C70A,< 1e-05 s⁻¹
6,A36C G43C C50G C68A,< 1e-05 s⁻¹
7,A12G A15U C71G,2.52e-05 ± 1.1e-05 s⁻¹
